Data taken from patent US20120141464A1 (ZENYTH OPERATIONS, published 2012).

T1: human GM-CSFRα (human, UniProt P15509 23-400)
T1 sequence: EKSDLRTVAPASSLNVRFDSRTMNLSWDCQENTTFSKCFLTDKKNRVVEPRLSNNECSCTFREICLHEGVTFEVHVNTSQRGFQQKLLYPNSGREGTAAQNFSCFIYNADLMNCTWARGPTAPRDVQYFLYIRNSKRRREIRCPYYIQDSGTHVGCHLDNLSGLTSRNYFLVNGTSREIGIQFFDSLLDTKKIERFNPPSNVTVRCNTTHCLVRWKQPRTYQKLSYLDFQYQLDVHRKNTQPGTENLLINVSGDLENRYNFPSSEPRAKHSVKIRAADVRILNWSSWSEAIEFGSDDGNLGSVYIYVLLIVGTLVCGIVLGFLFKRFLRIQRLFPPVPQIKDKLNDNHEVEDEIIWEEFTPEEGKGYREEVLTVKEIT

T2: recombinant purification-tagged human GM-CSF receptor α extracellular domain (human, UniProt P15509 23-320)
T2 construct: Amino acids 1 to 298 of the mature receptor; also called purified GM-CSFRα extracellular domain; soluble extracellular domain of GM-CSFRα; not shown: N-terminal purification tag; Flag-tagged
T2 sequence: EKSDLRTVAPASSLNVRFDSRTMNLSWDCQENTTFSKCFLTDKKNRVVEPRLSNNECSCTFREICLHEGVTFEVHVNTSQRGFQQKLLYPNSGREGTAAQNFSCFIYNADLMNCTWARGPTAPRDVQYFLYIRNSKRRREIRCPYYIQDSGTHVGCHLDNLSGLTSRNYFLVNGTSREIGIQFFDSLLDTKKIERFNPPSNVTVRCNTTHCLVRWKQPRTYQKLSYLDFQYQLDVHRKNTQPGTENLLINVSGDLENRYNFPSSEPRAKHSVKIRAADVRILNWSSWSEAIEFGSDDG


Columns and labels:
human GM-CSFRα [1] = target: T1, human GM-CSFRα; test: cell-based or functional assay
[2] = target: T2, recombinant purification-tagged human …; test: SPR (BIAcore 2000); IgG4 captured on protein A, tagged receptor ECD as analyte; 1:1 Langmuir fit
human GM-CSFRα [3] = target: T1, human GM-CSFRα; test: cell-based or functional assay; remark: listed apart in the source
human GM-CSFRα [4] = target: T1, human GM-CSFRα; test: cell-based or functional assay; remark: listed apart in the source

| Binder | IC50, TF-1 proliferation assay (7 pM human GM-CSF) (human GM-CSFRα [1]) | Kd [2] | IC50, human granulocyte shape change assay (7 pM human GM-CSF) (human GM-CSFRα [3]) | IC50, monocyte TNFα release assay (1 nM human GM-CSF) (human GM-CSFRα [4]) |
| --- | --- | --- | --- | --- |
| Antibody 4 (antibody, V domains shown, also called Antibody 04; Ab4) VH: QVQLVQSGAEVKKPGASVKVSCKISGHSLSELSIHWVRQTPTKGFEWMGGFDPEENEIVYAQRFQGRVTMTEDTSIDTAYLTLSSLRSDDTAVYYCAIVGSFSPPTYGYWGKGTMVTVSS VL: QAVLTQPSSVSGAPGQRVTISCTGSGSNIGAPYDVSWYQQLPGTAPKLLIYHNNKRPSGVPDRFSASKSGTSASLAITGLQADDEADYYCQSYDSSLSGSVFGGGTKVTVL | 48 pM | 4.07 nM |  |  |
| Antibody 6, non-germlined IgG4 (antibody, V domains shown) VH: QVQLVQSGAEVKKPGASVKVSCKISGHSLSELSIHWVRQTPTKGFEWMGGFDPEENEIVYAQRFQGRVTMTEDTSIDTAYLTLSSLRSDDTAVYYCSIVGSFSPLTLGLWGKGTMVTVSS VL: QAVLTQPSSVSGAPGQRVTISCTGSGSNIGAPYDVSWYQQLPGTAPKLLIYHNNKRPSGVPDRFSASKSGTSASLAITGLQADDEADYYCATVEAGLSGSVFGGGTKLTVL | 0.97 pM | 0.139 nM | 13.3 pM | 0.043 nM |
| Antibody 19 (antibody, V domains shown, also called Ab19) VH: QVQLVQSGAEVKKPGASVKVSCKISGHSLSELSIHWVRQTPTKGFEWMGGFDPEENEIVYAQRFQGRVTMTEDTSIDTAYLTLSSLRSDDTAVYYCAIVGSVSRITYGFWGKGTMVTVSS VL: QAVLTQPSSVSGAPGQRVTISCTGSGSNIGAPYDVSWYQQLPGTAPKLLIYHNNKRPSGVPDRFSASKSGTSASLAITGLQADDEADYYCQSYDSRNPHVIFGGGTKLTVL | 23.8 pM | 0.388 nM |  |  |
| Antibody 9 (antibody, V domains shown) VH: QVQLVQSGAEVKKPGASVKVSCKISGHSLSELSIHWVRQTPTKGFEWMGGFDPEENEIVYAQRFQGRVTMTEDTSIDTAYLTLSSLRSDDTAVYYCAIVGSFSPVTYGLWGQGTMVTVSS VL: QAVLTQPSSVSGAPGQRVTISCTGSGSNIGAPYDVSWYQQLPGTAPKLLIYHNNKRPSGVPDRFSASKSGTSASLAITGLQADDEADYYCQSYDSSLSGSVFGGGTKVTVL | 40.8 pM |  | 44 pM | 0.074 nM |
| Antibody 11 (antibody, V domains shown) VH: QVQLVQSGAEVKKPEASVKVSCKIPGHSLSELSIHWVRQTPTKGFEWMGGFDPEENEIVYAQRFQGRVTMTEDTSIDTAYLTLSSLRSDDTAVYYCAIVGSFSPITYGLWGKGTMVTVSS VL: QAVLTQPSSVSGVPGQRVTISCTGSGSNIGAPYDVSWYQQLPGTAPKLLIYHNNKRPSGVPDRFSASKSGTSASLAITGLQADDEADYYCQSYDSSLSGSVFGGGTKVTVL | 9 pM |  | 90 pM |  |
| Antibody 14 (antibody, V domains shown, also called Ab14) VH: QVQLVQSGAEVKKPGASVKVSCKISGHSLSELSIHWVRQTPTKGFEWMGGFDPEENEIVYAQRFQGRVTMTEDTSIDTAYLTLSSLRSDDTAVYYCSILGSVTAWAFDYWGKGTMVTVSS VL: QAVLTQPSSVSGAPGQRVTISCTGSGSNIGAPYDVSWYQQLPGTAPKLLIYHNNKRPSGVPDRFSASKSGTSASLAITGLQADDEADYYCQSYDSEDRMTEFGGGTKVTVL | 16.3 pM | 0.502 nM |  |  |
| Antibody 15 (antibody, V domains shown, also called Ab15) VH: QVQLVQSGAEVKKPGASVKVSCKISGHSLSELSIHWVRQTPTKGFEWMGGFDPEENEIVYAQRFQGRVTMTEDTSIDTAYLTLSSLRSDDTAVYYCSIAGSIPGWAFDYWGKGTMVTVSS VL: QAVLTQPSSVSGAPGQRVTISCTGSGSNIGAPYDVSWYQQLPGTAPKLLIYHNNKRPSGVPDRFSASKSGTSASLAITGLQADDEADYYCQSYDSQLISAAFGGGTKVTVL | 164 pM | 1.03 nM |  |  |
| Antibody 8 (antibody, V domains shown, also called Antibody 08; Ab8) VH: QVQLVQSGAEVKKPGASVKVSCKISGHSLSELSIHWVRQTPTKGFEWMGGFDPEENEIVYAQRFQGRVTMTEDTSIDTAYLTLSSLRSDDTAVYYCAIVGSFSPPAYRPWGKGTMVTVSS VL: QAVLTQPSSVSGAPGQRVTISCTGSGSNIGAPYDVSWYQQLPGTAPKLLIYHNNKRPSGVPDRFSASKSGTSASLAITGLQADDEADYYCQSYDSSLSGSVFGGGTKVTVL | 34.5 pM | 0.552 nM |  |  |
| Antibody 16 (antibody, V domains shown, also called Ab16) VH: QVQLVQSGAEVKKPGASVKVSCKISGHSLSELSIHWVRQTPTKGFEWMGGFDPEENEIVYAQRFQGRVTMTEDTSIDTAYLTLSSLRSDDTAVYYCSIVGSFSPLTMGLWGKGTMVTVSS VL: QAVLTQPSSVSGAPGQRVTISCTGSGSNIGAPYDVSWYQQLPGTAPKLLIYHNNKRPSGVPDRFSASKSGTSASLAITGLQAEDEADYYCATSDEILSGSVFGGGTKVTVL | 12.8 pM | 1.14 nM | 16 pM |  |
| Antibody 20 (antibody, V domains shown, also called Ab20) VH: QVQLVQSGAEVKKPGASVKVSCKISGHSLSELSIHWVRQTPTKGFEWMGGFDPEENEIVYAQRFQGRVTMTEDTSIDTAYLTLSSLRSDDTAVYYCSIVGSFSPLTLGLWGKGTMVTVSS VL: QAVLTQPSSVSGAPGQRVTISCTGSGSNIGAPYDVSWYQQLPGTAPKLLIYHNNKRPSGVPDRFSASKSGTSASLAITGLQADDEADYYCATVDEALSGSVFGGGTKVTVL | 9.8 pM | 0.127 nM | 7.8 pM |  |
| Antibody 7 (antibody, V domains shown, also called Antibody 07; Ab7) VH: QVQLVQSGAEVKKPGASVKVSCKISGHSLSELSIHWVRQTPTKGFEWMGGFDPEENEIVYAQRFQGRVTMTEDTSIDTAYLTLSSLRSDDTAVYYCAIVGSFSGPVYGLWGKGTMVTVSS VL: QAVLTQPSSVSGAPGQRVTISCTGSGSNIGAPYDVSWYQQLPGTAPKLLIYHNNKRPSGVPDRFSASKSGTSASLAITGLQADDEADYYCQSYDSSLSGSVFGGGTKVTVL | 93.8 pM | 3.93 nM |  |  |
| Antibody 10 (antibody, V domains shown, also called Ab10) VH: QVQLVQSGAEVKKPGASVKVSCKISGHSLSELSIHWVRQTPTKGFEWMGGFDPEENEIVYAQRFQGRVTMTEDTSIDTAYLTLSSLRSDDTAVYYCAIVGSFSGLAYRPWGKGTMVTISS VL: QAVLTQPSSVSGAPGQRVTISCTGSGSNIGAPYDVSWYQQLPGTAPKLLIYHNNKRPSGVPDRFSASKSGTSASLAITGLQADDEADYYCQSYDSSLSGSVFGGGTKVTVL | 55.3 pM | 1.5 nM | 62 pM | 0.139 nM |
| Antibody 12 (antibody, V domains shown, also called Ab12) VH: QVQLVQSGAEVKKPGASVKVSCKISGHSLSELSIHWVRQTPTKGFEWMGGFDPEENEIVYAQRFQGRVTMTEDTSIDTAYLTLSSLRSDDTAVYYCSIVGSFSGWAFDYWGKGTMVTVSS VL: QAVLTQPSSVSGAPGQRVTISCTGSGSNIGAPYDVSWYQQLPGTAPKLLIYHNNKRPSGVPDRFSASKSGTSASLAITGLQADDEADYYCQSYDSEPTEIRFGGGTKLTVL | 246 pM | 3.02 nM |  |  |
| Antibody 17 (antibody, V domains shown, also called Ab17) VH: QVQLVQSGAEVKKPGASVKVSCKISGHSLSELSIHWVRQTPTKGFEWMGGFDPEENEIVYAQRFQGRVTMTEDTSIDTAYLTLSSLRSDDTAVYYCSIVGSFSPLTMGLWGKGTMVTVSS VL: QAVLTQPSSVSGAPGQRVTISCTGSGSNIGAPYDVSWYQQLPGTAPKLLIYHNNKRPSGVPDRFSASKSGTSASLAITGLQADDEADYYCATVEDGLSGSVFGGGTKVTVL | 14.3 pM | 0.193 nM |  |  |
| Antibody 5 (antibody, V domains shown, also called Antibody 05; Ab5) VH: QVQLVQSGAEVKKPGASVKVSCKISGHSLSELSIHWVRQTPTKGFEWMGGFDPEENEIVYAQRFQGRVTMTEDTSIDTAYLTLSSLRSDDTAVYYCAIVGSFSGYPYRPWGQGTMVTVSS VL: QAVLTQPSSVSGAPGQRVTISCTGSGSNIGAPYDVSWYQQLPGTAPKLLIYHNNKRPSGVPDRFSASKSGTSASLAITGLQADDEADYYCQSYDSSLSGSVFGGGTKVTVL | 9.3 pM | 0.847 nM | 30 pM | 0.067 nM |
